Data on two proteins can be found in doi:10.1101/431106, “The architecture of the endoplasmic reticulum is regulated by the reversible lipid modification of the shaping protein CLIMP-63” (bioRxiv, 2018).

Numbering of substitutions follows the chain as printed. Names may count otherwise.

For orientation: stoichiometry N means a count of units in the complex or per binding partner.

Data set [1] concerns the molecule itself. As to the kind of experiment: cross-linking; disulfide trapping by an engineered cysteine; 35S Cys-Met 20 min pulse, immunoprecipitated using HA-beads, non-reducing SDS-PAGE, autoradiography; control cells and ZDHHC6 KO cells.
Data set [2] concerns the molecule itself. As to the kind of experiment: cross-linking; HeLa cells crosslinked 5 min at room temperature with 1mM BMOE, 1mM DSS or 0.025% glutaraldehyde; non-reducing SDS-PAGE, anti-CLIMP-63 blot.

B1: HA-CLIMP-63 V137C (natural protein, UniProt Q07065 1-602, looked up)
chain: MPSAKQRGSKGGHGAASPSEKGAHPSGGADDVAKKPPPAPQQPPPPPAPHPQQHPQQHPQNQAHGKGGHRGGGGGGGKSSSSSSASAAAAAAAASSSASCSRRLGRALNFLFYLALVAAAAFSGWCVHHVLEEVQQCRRSHQDFSRQREELGQGLQGVEQKVQSLQATFGTFESILRSSQHKQDLTEKAVKQGESEVSRISEVLQKLQNEILKDLSDGIHVVKDARERDFTSLENTVEERLTELTKSINDNIAIFTEVQKRSQKEINDMKAKVASLEESEGNKQDLKALKEAVKEIQTSAKSREWDMEALRSTLQTMESDIYTEVRELVSLKQEQQAFKEAADTERLALQALTEKLLRSEESVSRLPEEIRRLEEELRQLKSDSHGPKEDGGFRHSEAFEALQQKSQGLDSRLQHVEDGVLSMQVASARQTESLESLLSKSQEHEQRLAALQGRLEGLGSSEADQDGLASTVRSLGETQLVLYGDVEELKRSVGELPSTVESLQKVQEQVHTLLSQDQAQAARLPPQDFLDRLSSLDNLKASVSQVEADLKMLRTAVDSLVAYSVKIETNENNLESAKGLLDDLRNDLDRLFVKVEKIHEKV
notes: Made to trap dimers through a disulfide bond; also called V137C CLIMP-63; V137C mutant; source: HeLa (control or ZDHHC6 KO), transfected 24 hours, total cell extracts or immunoprecipitated with HA-beads; not shown: HA, N-terminal, kept
Turning to B1, the “stoichiometry N” value in data set [1] is 2.

B2: cytoskeleton-linking membrane protein 63 (CLIMP-63), endogenous (natural protein, human (endogenous in HeLa), UniProt Q07065 1-602, looked up)
chain: B1 chain with C137V
modifications: S-palmitoylation on Cys-100 in the majority (87%) of the cellular protein
notes: CLIMP-63 (CKAP4), endogenous protein of HeLa cells; also called CKAP4; source: endogenous, HeLa cells (membrane fraction, total cell extracts, fixed cells)
For the protein B2, in data set [2], the “stoichiometry N” value worked out at 2.
